The record followed here is patent US10877024B2, “Methods of determining interferon having direct inhibitory effects on tumors and uses thereof” (SUPERLAB FAR EAST LIMITED, priority 2015, dated 2020).

One assay concerns colon cancer SW620 cells. Kind of assay: Cell migration assay across microporous membranes. The format is cell-based, human. The conditions noted are these: 10 μg/ml, 24 hr. On the procedure:
(§1) The cell migration assay was performed using 8 μm cell culture inserts in 24-well plates (Becton-Dickinson Biosciences, NJ, USA). Warm (37° C.) bicarbonate based culture medium without FBS was added to the interior of the inserts and to the bottoms of the wells, and were allowed to rehydrate for 2 hr in humidified tissue culture incubator at 37° C. in 5% CO2. After rehydration, the culture medium was carefully removed. […] In the lower compartment of the 24-well plates were placed 500 μl of complete medium with 10% FBS. After 24 hr at 37° C. under the regular culture conditions, the non-migrated cells in the upper part of the chamber membranes were removed with a cotton swab. The lower part of the culture inserts were fixed with 4% paraformaldehyde and stained with 2% crystal violet. The number of migrated cells on the opposite side of the chamber membranes from where the cells were placed was counted in each of the triplicate wells. Each experiment was repeated at least two times, each time with triplicate wells.

The subject of a further assay is lung cancer A549 cells. Kind of assay: Cell migration assay across microporous membranes. The assay is classed as cell-based, human. The conditions noted are these: 10 μg/ml, 24 hr, untreated Mock about 30. The method, then:
as §1

B1: rSIFN-co: Recombinant super-compound interferon; amino acid sequence SEQ ID NO: 1 (same as INFERGEN), encoded by novel nucleotide sequence SEQ ID NO: 2 (protein)
chain: MCDLPQTHSLGNRRALILLAQMRRISPFSCLKDRHDFGFPQEEFDGNQFQKAQAISVLHEMIQQTFNLFSTKDSSAAWDESLLEKFYTELYQQLNDLEACVIQEVGVEETPLMNVDSILAVKKYFQRITLYLTEKKYSPCAWEVVRAEIMRSFSLSTNLQERLRRKE
modifications: Amino acid sequence of recombinant interferon
For B1, the tumor cell migration result in the assay on colon cancer SW620 cells is “Significant inhibition”. Also, the “mean number of migrating cells per field” value with lung cancer A549 cells is on record as “about 10 cells per field”.
